Experimental data from PMC5836121 (2017).

Tests used:
225-3 miniprotein = 225-3 miniprotein (fluorescein (N-(5-fluoresceinyl)maleimide) in fluorescence polarisation; biotin-PEG2-maleimide where immobilised in SPR; unlabelled otherwise); assay: FP; GppNHp
KRas(WT) = KRas(WT) (human, UniProt P01116 1-187, 15N-labelled in NMR; biotin on the yBBr tag (by Sfp) in SPR); assay: SPR; GppNHp

Kd (225-3 miniprotein) [µM]	Kd (KRas(WT)) [nM]	Binder
> 10	–	Rab25 (natural protein, biotinylated in SPR; unlabelled in fluorescence polarisation) MGNGTEEDYNFVFKVVLIGESGVGKTNLLSRFTRNEFSHDSRTTIGVEFSTRTVMLGTAAVKAQIWDTAGLERYRAITSAYYRGAVGALLVFDLTKHQTYAVVERWLKELYDHAEATIVVMLVGNKSDLSQAREVPTEEARMFAENNGLLFLETSALDSTNVELAFETVLKEIFAKVSKQRQNSIRTNAITLGSAQAGQEPGPGEKRACCISL
–	0.09	225-15a/b heterodimeric miniprotein (designed binder, oxidized dimer (disulfide with the other chain) | oxidized dimer (disulfide with the other chain)) chain 1: SGPRRPRCPGDQASLEELHEYWARLWNYLYRVAH chain 2: GGGPRRPRCPGDNASIKQLHAYWQRLYAYLAAVA
> 10	–	RalA (natural protein, biotinylated in SPR; unlabelled in fluorescence polarisation) MAANKPKGQNSLALHKVIMVGSGGVGKSALTLQFMYDEFVEDYEPTKADSYRKKVVLDGEEVQIDILDTAGQEDYAAIRDNYFRSGEGFLCVFSITEMESFAATADFREQILRVKEDENVPFLLVGNKSDLEDKRQVSVEEAKNRAEQWNVNYVETSAKTRANVDKVFFDLMREIRARKMEDSKEKNGKKKRKSLAKRIRERCCIL
